{"source": "paper PMC10025160", "about": "“Uncovering Zn^2+ as a cofactor of FAD-dependent Pseudomonas aeruginosa PAO1 D-2-hydroxyglutarate dehydrogenase” (The Journal of Biological Chemistry, 2023)", "proteins": {"B1": {"name": "PaD2HGDH (Pseudomonas aeruginosa PAO1) (protein)", "chain": "MTREALIESLKPLVEPGKLLDDAASLDAYGKDWTKHFAPAPLAIVFPKSVEQVQAIVRWANQHKVGLVPSGGRTGLSAAAVAANGEVVVAFDYMNRILDFNAFDRTVVCQPGVVTKQLQTFAEENGLYYPVDFASSGSSQIGGNIGTNAGGIKVIRYGMTRNWVAGMKVVTGKGDLLELNKDLIKNATGYDMRQLFIGAEGTLGFVVEATMRLERTPKNLTAMVLGTPDFDSIMPVLHAFQSKLDLTAFEFFSDKALAKVLARGDVPRAFETDCPFYALLEFEATTEEVANEALATFEHCVEQGWVLDGVMSQSEQQLQNLWKLREYISETISHWTPYKNDISVTVSRVPAFLKDIDAIVEANYPDFEVVWFGHIGDGNLHLNILKPENLGKDEFFAKCATVNKWVFETVEKYNGSISAEHGVGMTKRDYLTYTRSETEIAYMKALKAVFDPNGIMNPGKIFAE", "notes": "wild type, His-tagged, pET20b(+), expressed in E. coli Rosetta(DE3)pLysS, Ni-NTA purified"}}, "substrate": "O=C(O)C[C@@H](O)C(=O)O", "test": "initial rates, oxygen consumption (Oxy-32 electrode)", "format": "biochemical, Pseudomonas aeruginosa", "settings": "E-Zn^2+ form (purified with 1 mM ZnCl2, Zn:protein about 2:1), 1 mM PMS (fixed), 25 mM NaPO4, pH 7.4, 25 °C, apparent", "description": "initial rates, oxygen consumption (Oxy-32 electrode) on PaD2HGDH"}
{"protein": "B1", "values": [{"measurement": "Km", "result": "5.1 ± 0.4", "unit": "mM"}, {"measurement": "kcat", "result": "38 ± 1", "unit": "s⁻¹"}, {"measurement": "kcat/Km", "result": "7000 ± 500", "unit": "M⁻¹ s⁻¹"}]}
